In US20260132180:

What was measured:
[1] = system: Pro064
[2] = system: Pro101
[3] = system: Pro054
[4] = system: Pro061
[5] = system: Pro055

Chain of MMP-2 protease (P08253 110-660): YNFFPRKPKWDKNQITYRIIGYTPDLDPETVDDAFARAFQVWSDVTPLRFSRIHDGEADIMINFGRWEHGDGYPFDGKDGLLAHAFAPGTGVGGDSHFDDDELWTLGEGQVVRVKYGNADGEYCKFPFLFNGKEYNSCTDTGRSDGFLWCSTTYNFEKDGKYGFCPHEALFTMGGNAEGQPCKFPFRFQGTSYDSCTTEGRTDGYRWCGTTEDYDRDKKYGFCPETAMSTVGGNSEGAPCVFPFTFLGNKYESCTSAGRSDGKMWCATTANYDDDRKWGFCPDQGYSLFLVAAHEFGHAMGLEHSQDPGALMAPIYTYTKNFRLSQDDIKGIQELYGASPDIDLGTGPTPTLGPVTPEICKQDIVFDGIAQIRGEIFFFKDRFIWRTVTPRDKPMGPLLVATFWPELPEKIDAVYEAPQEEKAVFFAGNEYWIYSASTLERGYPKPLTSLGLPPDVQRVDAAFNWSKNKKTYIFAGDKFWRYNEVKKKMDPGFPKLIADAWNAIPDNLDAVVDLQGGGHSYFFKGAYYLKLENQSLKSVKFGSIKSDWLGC
Chain of Pro064 (chain, as listed by the source): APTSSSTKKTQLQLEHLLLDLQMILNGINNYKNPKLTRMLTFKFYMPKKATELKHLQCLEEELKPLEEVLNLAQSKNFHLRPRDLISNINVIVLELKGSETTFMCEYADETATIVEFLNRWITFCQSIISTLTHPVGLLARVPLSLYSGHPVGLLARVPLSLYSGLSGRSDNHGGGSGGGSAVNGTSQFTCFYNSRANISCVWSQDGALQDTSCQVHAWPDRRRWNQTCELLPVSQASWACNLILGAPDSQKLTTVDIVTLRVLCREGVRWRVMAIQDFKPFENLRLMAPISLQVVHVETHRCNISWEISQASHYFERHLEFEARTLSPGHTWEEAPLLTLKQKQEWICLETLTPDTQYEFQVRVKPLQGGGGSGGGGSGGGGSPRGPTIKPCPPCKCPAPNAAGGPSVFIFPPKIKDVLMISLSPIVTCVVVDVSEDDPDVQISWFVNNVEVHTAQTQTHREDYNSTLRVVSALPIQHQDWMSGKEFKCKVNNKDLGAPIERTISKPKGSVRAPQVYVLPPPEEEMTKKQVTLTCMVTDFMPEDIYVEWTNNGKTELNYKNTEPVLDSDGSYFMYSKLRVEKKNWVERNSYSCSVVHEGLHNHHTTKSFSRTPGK
Chain of Pro061 (chain, as listed by the source): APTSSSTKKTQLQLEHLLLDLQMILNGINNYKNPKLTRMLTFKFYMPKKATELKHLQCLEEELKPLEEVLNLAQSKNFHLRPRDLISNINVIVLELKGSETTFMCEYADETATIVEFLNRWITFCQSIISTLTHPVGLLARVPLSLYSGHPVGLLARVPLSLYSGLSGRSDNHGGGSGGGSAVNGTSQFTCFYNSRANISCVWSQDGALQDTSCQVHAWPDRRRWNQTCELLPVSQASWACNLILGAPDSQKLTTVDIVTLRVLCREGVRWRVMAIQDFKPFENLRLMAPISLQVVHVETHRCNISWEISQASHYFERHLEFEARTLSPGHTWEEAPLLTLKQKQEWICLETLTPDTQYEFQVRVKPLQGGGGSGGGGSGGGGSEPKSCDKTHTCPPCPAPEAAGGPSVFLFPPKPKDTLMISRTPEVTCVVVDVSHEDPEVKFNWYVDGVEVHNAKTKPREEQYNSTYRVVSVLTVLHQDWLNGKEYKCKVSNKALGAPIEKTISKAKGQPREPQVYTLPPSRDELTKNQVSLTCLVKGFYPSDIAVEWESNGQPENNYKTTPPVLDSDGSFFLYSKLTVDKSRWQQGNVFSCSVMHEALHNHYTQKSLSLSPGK
Chain of Pro054 (chain, as listed by the source): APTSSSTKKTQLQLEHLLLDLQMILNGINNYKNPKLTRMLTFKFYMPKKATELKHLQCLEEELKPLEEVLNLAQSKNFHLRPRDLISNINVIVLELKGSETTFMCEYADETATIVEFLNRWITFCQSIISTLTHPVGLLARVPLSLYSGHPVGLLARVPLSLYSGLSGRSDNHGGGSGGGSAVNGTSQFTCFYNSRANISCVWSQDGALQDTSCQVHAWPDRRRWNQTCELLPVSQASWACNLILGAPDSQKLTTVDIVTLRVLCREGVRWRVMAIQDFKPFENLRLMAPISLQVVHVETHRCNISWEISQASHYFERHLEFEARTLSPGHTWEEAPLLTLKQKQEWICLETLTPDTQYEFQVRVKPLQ

MMP-2 protease
Percentage of cleaved protein determined using WB after incubation with activated MMP-2 protease [1]: Pro054, Pro055, Pro061, and Pro064 were sensitive to MMP-2 digestion and protease-dependent removal of masking and half-life extension domains | Fraction of cleaved Pro101 determined by WB [2]: effective linker cleavage in Pro101 | Percentage of cleaved protein determined using WB after incubation with activated MMP-2 protease [3]: Pro054, Pro055, Pro061, and Pro064 were sensitive to MMP-2 digestion and protease-dependent removal of masking and half-life extension domains | Percentage of cleaved protein determined using WB after incubation with activated MMP-2 protease [4]: Pro054, Pro055, Pro061, and Pro064 were sensitive to MMP-2 digestion and protease-dependent removal of masking and half-life extension domains | Percentage of cleaved protein determined using WB after incubation with activated MMP-2 protease [5]: Pro054, Pro055, Pro061, and Pro064 were sensitive to MMP-2 digestion and protease-dependent removal of masking and half-life extension domains
